Measurements as given in publication PMC12435805 (Nature Chemical Biology, 2025).
Residue numbers refer to the chain shown, from its start. Like-named read-outs stand apart in the source and are kept apart here.

B1: GbRBD1 (VHH)
VHH: QVQLVENGGGCVKAGGSLRLSCAVSGRTFSTAAMGWFRQAPGKEREFVAAIRWSGGSAYYADSVKGRFTISRDKAKNTVYLQMNSLKYEDTAVYYCAQTRVTRSLLSDYATWPYDYWGQGTQVMVS
B2: Nb5-006 (VHH)
VHH: VQLVENSGGGLVQAGGSLRLSCAASGSIFSINRMTWYRQAPGKEREWVAAITSGGSTNYADSVKGRFTISRDNAENTVYLQMNSLKPEDTAVYYCEAYGTYTLAPTGEGEYDDYWGQGTQVTVS
B3: anti-RECQL5 monomeric Gb5-006 (VHH)
VHH: B2 VHH with V1Q, Q2V, L3Q, V4L, E5V, N6E, S7N, L11C, Q13K, T122M
notes: also called G5-006; Gb equivalent
B4: truncated RECQL5 protein (11–453) (domain or fragment, UniProt O94762 11-453, looked up)
chain: DPERRVRSTLKKVFGFDSFKTPLQESATMAVVKGNKDVFVCMPTGAGKSLCYQLPALLAKGITIVVSPLIALIQDQVDHLLTLKVRVSSLNSKLSAQERKELLADLEREKPQTKILYITPEMAASSSFQPTLNSLVSRHLLSYLVVDEAHCVSQWGHDFRPDYLRLGALRSRLGHAPCVALTATATPQVQEDVFAALHLKKPVAIFKTPCFRANLFYDVQFKELISDPYGNLKDFCLKALGQEADKGLSGCGIVYCRTREACEQLAIELSCRGVNAKAYHAGLKASERTLVQNDWMEEKVPVIVATISFGMGVDKANVRFVAHWNIAKSMAGYYQESGRAGRDGKPSWCRLYYSRNDRDQVSFLIRKEVAKLQEKRGNKASDKATIMAFDALVTFCEELGCRHAAIAKYFGDALPACAKGCDHCQNPTAVRRRLEALERSSSW
notes: also called RECQ5; DNA helicase RECQL5
B5: GbLysozyme (VHH)
VHH: DVQLVENGGGCVKAGGSLRLSCAASGSTDSIEYMTWFRQAPGKAREGVAALYTHTGNTYYTDSVKGRFTISQDKAKNMAYLRMDSVKSEDTAIYTCGATRKYVPVRFALDQSSYDYWGQGTQVMVSS
B6: anti-RECQL5 wild-type nanobody (VHH)
VHH: QVQLVESGGGLVQAGGSLRLSCAASGSIFSINRMGWYRQAPGKQRELVAAITSGGSTNYADSVKGRFTISRDNAKNTVYLQMNSLKPEDTAIYYCEAYGTYTLAPTGEGEYDDYWGQGTQVTVS
notes: also called RECQL5 nanobody; anti-RECQL5 nanobody
B7: anti-sfGFP monomeric GbEnhancer (VHH)
VHH: QVQLVENGGACVKPGGSLRLSCAASGFPVNRYSMRWYRQAPGKEREWVAGMSSAGDRSSYEDSVKGRFTISRDDARNTVYLQMNSLKPEDTAVYYCNVNVGFEYWGQGTQVMVS
notes: also called GbGFP; sfGFP Gb

Legend:
[1] = molecular target: SARS-CoV-2 receptor-binding domain (RBD) (SARS-CoV-2, ancestral strain assumed, UniProt P0DTC2, glycans removed; complex for cryo-EM PEGylated with NHS-PEG4-azide)
[2] = molecular target: B4
[3] = molecular target: B4; assay: BLI; details: both partners purified
[4] = molecular target: T1, anti-RECQL5 homoDiGb5-006; assay: BLI; details: both partners purified
T1 construct: also called homoDiGb Gb5-006

[5] = molecular target: hen egg white lysozyme (Gallus gallus, UniProt P00698)
[6] = molecular target: T2, superfolder GFP (Aequorea victoria, engineered …, stabilised); assay: BLI; details: both partners purified
T2 construct: also called sfGFP
T2 sequence (P42212 other isoform, or with tags, fused parts or gaps, change not shown): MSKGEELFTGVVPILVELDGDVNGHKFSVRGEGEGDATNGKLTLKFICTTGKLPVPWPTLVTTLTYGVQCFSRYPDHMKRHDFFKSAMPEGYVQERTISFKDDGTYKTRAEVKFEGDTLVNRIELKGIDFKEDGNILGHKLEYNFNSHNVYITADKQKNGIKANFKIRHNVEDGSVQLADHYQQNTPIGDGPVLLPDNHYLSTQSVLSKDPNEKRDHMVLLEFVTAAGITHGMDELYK

Chain of hen egg white lysozyme (P00698 19-147): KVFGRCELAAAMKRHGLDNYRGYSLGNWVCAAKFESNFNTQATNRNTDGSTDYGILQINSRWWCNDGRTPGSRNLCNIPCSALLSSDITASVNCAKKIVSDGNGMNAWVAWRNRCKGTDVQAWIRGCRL

## B1
[1]
  binding result: binds

## B2
[2]
  Kd: 1200 nM

## B3
[3]
  Kd: 9000 nM

## B4
[4]
  Kd: 23400 nM

## B5
[5]
  binding result: binds

## B6
[3]
  Kd: 1200 nM

## B7
[6]
  Kd: 5 nM
